Test results reported in patent US20180022779.

Biological target: purified Hb α chains (isolated from lyophilized hemoglobin, Sigma), P69905
Sequence (P69905 2-142): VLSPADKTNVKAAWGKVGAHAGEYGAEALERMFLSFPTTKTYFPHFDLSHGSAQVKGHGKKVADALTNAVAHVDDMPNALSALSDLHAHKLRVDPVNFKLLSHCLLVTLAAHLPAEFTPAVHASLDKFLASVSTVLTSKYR

B1: human CytB5R3 (endogenous, vascular cell co-culture and human coronary ECs) (protein)
chain: GAQLSTLGHMVLFPVWFLYSLLMKLFQRSTPAITLESPDIKYPLRLIDREIISHDTRRFRFALPSPQHILGLPVGQHIYLSARIDGNLVVRPYTPISSDDDKGFVDLVIKVYFKDTHPKFPAGGKMSQYLESMQIGDTIEFRGPSGLLVYQGKGKFAIRPDKKSNPIIRTVKSVGMIAGGTGITPMLQVIRAIMKDPDDHTVCHLLFANQTEKDILLRPELEELRNKHSARFKLWYTLDRAPEAWDYGQGFVNEEMIRDHLPPPEEEPLVLMCGPPPMIQYACLPNLDHVGHPTERCFVF
For B1, the “met-Hb α reduction, time lapse UV-visible spectrometry of EC lysates mixed with purified Hb α chains and NADH” value was “loss of CytB5R3 inhibited metHb α reduction”.

B2: FLAG-tagged CytB5R3 (Origene) (protein)
chain: GAQLSTLGHMVLFPVWFLYSLLMKLFQRSTPAITLESPDIKYPLRLIDREIISHDTRRFRFALPSPQHILGLPVGQHIYLSARIDGNLVVRPYTPISSDDDKGFVDLVIKVYFKDTHPKFPAGGKMSQYLESMQIGDTIEFRGPSGLLVYQGKGKFAIRPDKKSNPIIRTVKSVGMIAGGTGITPMLQVIRAIMKDPDDHTVCHLLFANQTEKDILLRPELEELRNKHSARFKLWYTLDRAPEAWDYGQGFVNEEMIRDHLPPPEEEPLVLMCGPPPMIQYACLPNLDHVGHPTERCFVF
B2 was tested, and the “met-Hb α reduction, time lapse UV-visible spectrometry of lysates of ECs transfected with CytB5R3-Flag, mixed with purified Hb α chains and NADH” value was “overexpression enhanced metHb α reduction”.
